From US20170306031A1 (NGM BIOPHARMACEUTICALS, published 2017)
Substitutions are numbered along the chain they refer to.

T1: human GFRAL (analyte in Biacore assays) (human, UniProt Q6UXV0 19-351, limits assumed)
T1 construct: injected in solution over captured antibody; also called hGFRAL
T1 sequence: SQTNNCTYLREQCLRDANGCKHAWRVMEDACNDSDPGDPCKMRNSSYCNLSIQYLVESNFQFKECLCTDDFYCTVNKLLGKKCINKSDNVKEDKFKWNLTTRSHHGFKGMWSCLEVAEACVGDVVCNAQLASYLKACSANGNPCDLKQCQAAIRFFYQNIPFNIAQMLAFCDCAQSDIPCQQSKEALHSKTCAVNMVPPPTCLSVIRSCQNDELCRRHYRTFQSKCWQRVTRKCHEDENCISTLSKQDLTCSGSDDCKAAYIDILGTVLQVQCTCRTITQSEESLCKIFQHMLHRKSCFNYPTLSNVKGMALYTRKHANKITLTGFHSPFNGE

T2: mouse GFRAL (analyte in Biacore assays) (mouse, UniProt Q6SJE0 20-349, limits assumed)
T2 construct: injected in solution over captured antibody
T2 sequence: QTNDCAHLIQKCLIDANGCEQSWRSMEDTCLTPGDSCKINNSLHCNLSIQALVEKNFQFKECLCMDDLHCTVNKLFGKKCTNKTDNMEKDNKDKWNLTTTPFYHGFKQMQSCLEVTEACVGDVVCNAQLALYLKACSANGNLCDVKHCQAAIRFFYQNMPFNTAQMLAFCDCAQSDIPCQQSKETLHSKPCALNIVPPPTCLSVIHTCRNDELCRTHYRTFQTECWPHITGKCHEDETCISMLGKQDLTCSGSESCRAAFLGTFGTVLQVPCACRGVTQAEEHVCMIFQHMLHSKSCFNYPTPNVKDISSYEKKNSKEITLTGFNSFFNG

T3: human GFRAL expressed on cells (human, UniProt Q6UXV0 20-394)
T3 sequence: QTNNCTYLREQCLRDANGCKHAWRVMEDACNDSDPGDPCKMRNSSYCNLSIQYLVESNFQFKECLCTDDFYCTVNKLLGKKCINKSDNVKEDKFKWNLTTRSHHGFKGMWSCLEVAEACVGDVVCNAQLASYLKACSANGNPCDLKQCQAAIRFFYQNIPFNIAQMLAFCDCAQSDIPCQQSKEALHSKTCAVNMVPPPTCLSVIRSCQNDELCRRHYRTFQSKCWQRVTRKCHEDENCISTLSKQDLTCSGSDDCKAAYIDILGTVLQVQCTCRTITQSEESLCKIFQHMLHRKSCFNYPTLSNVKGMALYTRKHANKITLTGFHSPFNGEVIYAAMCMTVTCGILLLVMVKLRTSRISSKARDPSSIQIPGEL

T4: mouse GFRAL expressed on cells (mouse, UniProt Q6SJE0 20-393)
T4 sequence: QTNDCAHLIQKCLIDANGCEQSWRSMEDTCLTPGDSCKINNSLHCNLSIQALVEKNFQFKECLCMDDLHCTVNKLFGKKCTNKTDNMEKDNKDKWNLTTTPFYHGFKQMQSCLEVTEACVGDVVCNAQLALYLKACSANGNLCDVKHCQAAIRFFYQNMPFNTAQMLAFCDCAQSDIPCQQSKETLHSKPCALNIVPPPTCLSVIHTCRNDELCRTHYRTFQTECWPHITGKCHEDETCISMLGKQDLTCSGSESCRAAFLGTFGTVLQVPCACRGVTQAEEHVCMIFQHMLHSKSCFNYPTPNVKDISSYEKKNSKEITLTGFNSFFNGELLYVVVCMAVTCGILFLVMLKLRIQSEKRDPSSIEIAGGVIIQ

B1: antibody designated 1C1 (antibody, V domains shown)
VH: QMQLKQSGPGLVQPSQSLSITCTVSGFSLNDYGVHWIRQSPGKGLEWLGVIWSGGRTDYNAAFISRLSISKDNSKSQVFFKMSSLQPQDTAIYYCARWALYFLYGGSMDYWGQGTSVTVSS
VL: DVVLTQTPLSLPVSPGDQASISCRSSQSLVHSSGITYLHWYLQKPGQSPKLLIYKLSNRFSGVPDRFSGSGSGTDFTLKISRVEAEDLGVYFCSQSTHVPPWTFGGGTKLEIK
notes: mouse hybridoma monoclonal
B2: antibody designated 2B3 (antibody, V domains shown)
VH: EVKLVESGGGLVQPGGSLKLSCAASGFTFSDYFMFWVRQTPEKRLEWVAYISNDGDSTYYPDTVQGRFTISRDNAKNTLYLQMSRLRSEDTAMYYCTRQGAQATLDYWGQGTTLTVSS
VL: QIVLTQSPAIMSASLGEEITLTCSASSSVFYMHWYQQKSGTSPKLLIYSTSNLASGIPSRFSGSGSGTFYSLTISSVEAEDAADYYCHQWSSTFGGGTKLEIK
B3: humanized anti-GFRAL antibody HC-375g/LC-375j (antibody, IgG1, V domains shown)
VH: QVQLVQSGAEVKKPGSSVKVSCKASGYTFTDYYINWVRQAPGQGLEWIARIYPGNGNTYHNEKFKGRATLTADKSTSTAYMELSSLRSEDTAVYYCAREGLYYDYDRYFDYWGQGTLVTVSS
VL: DIVLTQSPLSLPVTLGQPASISCRASESVDTYGNSFMHWYQQRPGQSPRLLIYLASNLESGVPDRFSGSGSRTDFTLKISRVEAEDVGVYYCHQNNEDPPAFGGGTKVEIK
notes: humanized 5F12
B4: antibody designated 2B8 (antibody, V domains shown)
VH: QIQLVQSGPELKKPGETVKISCKASGYTFTTYGMSWVKQAPGKIFKWMGWINTYSGVPTFVDDFRGRFAFSLETSASTAYLQIGNLKNEDTATYFCARRSSYYPYWYFDVWGTGTTVTVSS
VL: DIQMTQSPASLSASVGETVTITCRPSENIYSYLTWFQQEQGKSPQLLVYNAQTLAEGVPSRFSGSGSGTHFSLKINSLQPEDFGTYYCQHYYGYPFTFGSGTKLEIK
notes: mouse hybridoma monoclonal
B5: antibody designated 25M22 (antibody, V domains shown)
VH: QVQLQQSGPDLVKPGASVKISCKASGYTFTSYWVNWMKQRPGKGLEWIGRIYPGDGDTNYNGKFKGKATLTADKSSSTAYMQLSSLTSEDSAVYFCARAYLLRLRRTGYYAMDYWGQGTSVTVSS
VL: DVVLTQTPLSLPVNIGDQASISCKSTKSLLNSDEFTYLDWYLQKPGQSPQLLIFLVSNRFSGVPDRFSGSGSGTDFTLKISRVEAEDLGVYYCFQSNYLPYTFGGGTKLEIK
notes: mouse hybridoma monoclonal
B6: antibody designated 19K19 (antibody, V domains shown)
VH: B5 VH with T28A, V34M, M37V
VL: B5 VL with F54Y
notes: mouse hybridoma monoclonal
B7: antibody designated 8D8 (antibody, V domains shown)
VH: QVQLKESGPGLVAPSQSLSITCTVSGFSLSRYSVHWVRQPPGKGLEWLGMIWGFGSTDYNSALKSRLSITKDNSKSQFFLKMNSLQTDDTAMYYCARIHTTAGSYWGQGTLVTVSA
VL: DIVMTQSQKFMSTSIGDRVSVTCKASQNVGTNVAWYQQKPGQSPKALVYSTSYRYSGVPDRFTGSGSGTDFTLTISNVQSEDLAEYFCHQYNSYPLTFGAGTKLELK
notes: mouse hybridoma monoclonal
B8: antibody designated 22N5 (antibody, V domains shown)
VH: QNQLVQSGPELKKPGEIVKISCKTSGYTFTDYSMHWVKKTPGKGFKWMGWINTETGEPTYADDFKGRFAFSLETSANTAHLQITNLKNEDTATYFCVKGTLNYWGQGTTLTVSS
VL: DIKMTQSPSSMYASLGERVTITCKASQDIKSYLNWFQQKPGKSPKTLIYRTKRLVDGVPSRFSGSGSGQDYSLTVSSLEYDDVGIYYCLQYVEFPLTFGDGTKLELK
notes: mouse hybridoma monoclonal
B9: antibody designated 12A3 (antibody, V domains shown)
VH: QIQLVQSGPELKKPGETVKISCKASGYPFTIYGMNWVEQAPGKGLKWMGWINTYSGVPTYADDFKGRFAFSLETSASTAYLQINNLKDEDTATYFCASATGNYWGQGTTLTVSS
VL: DIQMTQSPSSLSASLGERVSLTCRASQDIGSSLNWLQQEPDGTIKRLIYATSSLDSGVPKRFSGSRSGSDYSLTISSLESEDFVDYYCLQYASSPYTFGGGTKVEIK
notes: mouse hybridoma monoclonal

Assays:
[1] = target: T1, human GFRAL (analyte in Biacore assays); experiment: Biacore SPR, antibody captured, GFRAL injected
Method: (§1) In addition, the binding affinity of antibodies to human and mouse GFRAL were measured. For example, antibodies were rank ordered based on their binding affinity to human GFRAL and mouse GFRAL by low resolution KD measurement by Biacore. Briefly, an anti-mouse Fc antibody (Sigma-Aldrich, St. Louis, Mo.) was immobilized on all four flow cells of a CM5 chip using amine coupling reagents (GE Healthcare LifeSciences, Piscataway, N.J.). Purified antibodies were captured (˜100 RUs) on flow cells 2, 3 and 4 using flow cell 1 as a reference. This was followed by injection of human or mouse GFRAL (25 nM in PBS-P buffer) at a flow rate of 70 μL/m in and monitoring the binding kinetics at 25° C.
(§2) Binding affinity measurements were also made in additional Biacore based assays. For example, equilibrium dissociation constant (KD) measurements were carried out with purified antibodies to evaluate their binding to human GFRAL or mouse GFRAL. As mentioned above, anti-mouse Fc antibody (Sigma-Aldrich, St. Louis, Mo.) was immobilized on all four flow cells of a CM5 chip using amine coupling reagents (GE Healthcare LifeSciences, Piscataway, N.J.). Purified antibodies were captured (˜100 RUs) on flow cells 2, 3 and 4 using flow cell 1 as a reference. This was followed by injection of human or mouse GFRAL in PBS-P buffer) at a flow rate of 70 μL/min and the binding kinetics were evaluated at 25° C.

[2] = target: T2, mouse GFRAL (analyte in Biacore assays); experiment: Biacore SPR, antibody captured, GFRAL injected
Method: as §1, §2

[3] = target: T3, human GFRAL expressed on cells; experiment: cell-based or functional assay
[4] = target: T4, mouse GFRAL expressed on cells; experiment: cell-based or functional assay
[5] = target: T3, human GFRAL expressed on cells; experiment: cell-based or functional assay; remark: listed apart in the source
[6] = target: T1, human GFRAL (analyte in Biacore assays); experiment: Biacore SPR, antibody captured, human GFRAL injected
Method: Exemplary humanized anti-GFRAL antibodies identified in Example 6 were assayed for their binding affinity to human GFRAL. Binding affinity measurements were made in Biacore based assays. For example, equilibrium dissociation constant (KD) measurements were carried out with purified antibodies to evaluate their binding to human GFRAL. Using methods described in Example II, anti-mouse Fc antibody (Sigma-Aldrich, St. Louis, Mo.) was immobilized on all four flow cells of a CM5 chip using amine coupling reagents (GE Healthcare LifeSciences, Piscataway, N.J.). Purified humanized anti-GFRAL antibodies were captured (˜100 RUs) on flow cells 2, 3 and 4 using flow cell 1 as a reference. This was followed by injection of human GFRAL in PBS-P buffer) at a flow rate of 70 μL/min and the binding kinetics were evaluated at 25° C.

Row | Kd [1] | Kd [2] | koff [2] | IC50, ELK1-luciferase reporter (hGFRAL/hRET) [3] | IC50, ELK1-luciferase reporter (mGFRAL/mRET) [4] | IC50, ERK phosphorylation in U2OS hGFRAL/hRET cells [5] | Kd [6] | koff [1] | Binder
1 | < 0.1 nM | 3.68 nM | 0.0025 s⁻¹ | 8.64 nM | 1.19 nM | 0.61 nM | – | – | B1
2 | – | – | – | 7.12 nM | 7.76 nM | 1.48 nM | – | – | B2
3 | – | – | – | – | – | – | 0.057 nM | – | B3
4 | 0.73 nM | 3.76 nM | 0.013 s⁻¹ | 1.92 nM | 2.45 nM | 0.22 nM | – | – | B4
5 | < 0.1 nM | 4.2 nM | 0.0001 s⁻¹ | 2.89 nM | 1.11 nM | 0.53 nM | – | ~1e-05 s⁻¹ | B5
6 | 0.21 nM | 4.7 nM | 0.0034 s⁻¹ | 3.88 nM | 0.895 nM | 0.61 nM | – | 0.000135 s⁻¹ | B6
7 | 0.46 nM | 8.17 nM | 0.00281 s⁻¹ | 2.11 nM | 1.42 nM | 0.63 nM | – | 0.000124 s⁻¹ | B7
8 | 0.21 nM | 3.47 nM | 0.000943 s⁻¹ | 7.74 nM | 2.6 nM | 0.9 nM | – | 0.000132 s⁻¹ | B8
9 | < 0.1 nM | 5.7 nM | 0.00216 s⁻¹ | 4.99 nM | 0.933 nM | 0.54 nM | – | ~1e-05 s⁻¹ | B9
